Results on seven substances are retold here after the supplement of paper PMC5998384.

In data set [1] the test system is HeLa Kyoto. In words: solubility change mitosis vs G1/S (difference of NP-40 vs SDS log2 ratios) (log2 ratio difference); higher = more soluble in mitosis.
For data set [2], the system named is HeLa Kyoto. Briefly: solubility in G1/S (NP-40 vs SDS abundance) (log2 ratio); higher = more soluble. The following applies: cell cycle stage: G1/S.
Data set [3] concerns HeLa Kyoto. In words: melting temperature (median over replicates), in situ; higher = more thermally stable.
Data set [4] deals with HeLa Kyoto. Briefly: thermal stability score vs G1/S (z-score of summed log2 fold changes over temperatures); higher = more thermally stable than in G1/S.
[5] abbreviates: cell cycle stage: early G1 (4.5 h after nocodazole release).
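For melting temperature (median over replicates), in situ in this document: HeLa Kyoto cells synchronized by double thymidine or nocodazole block, proteins quantified by TMT10plex mass spectrometry, three independent biological replicates.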
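For solubility change mitosis vs G1/S (difference of NP-40 vs SDS log2 ratios) in this document: synchronized HeLa Kyoto cells (double thymidine block for G1/S, nocodazole release for mitosis), protein amounts in NP-40 versus SDS lysates quantified by mass spectrometry, three biological replicates.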
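For solubility in G1/S (NP-40 vs SDS abundance) in this document: HeLa Kyoto cells arrested at G1/S by double thymidine block, proteins quantified by TMT10plex mass spectrometry in mild NP-40 versus SDS extracts, three biological replicates.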
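For thermal stability score vs G1/S (z-score of summed log2 fold changes over temperatures) in this document: synchronized HeLa Kyoto cells, proteins quantified by TMT10plex mass spectrometry, three biological replicates, mitosis taken 0.5 h after nocodazole release, G1/S directly after double thymidine block.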

Regarding “MSSKKNRKRLNQSAENGSSLPSAASSCAEARAPSAGSDFAATSGTLTVTNLLEKVDDKIPKTFQNSLIHLGLNTMKSANICIGRPVLLTSLNGKQEVYTAWPMAGFPGGKVGLSEMAQKNVGVRPGDAIQVQPLVGAVLQAEEMDVALSDKDMEINEEELTGCILRKLDGKIVLPGNFLYCTFYGRPYKLQVLRVKGADGMILGGPQSDSDTDAQRMAFEQSSMETSSLELSLQLSQLDLEDTQIPTSRSTPYKPIDDRITNKASDVLLDVTQSPGDGSGLMLEEVTGLKCNFESAREGNEQLTEEERLLKFSIGAKCNTDTFYFISSTTRVNFTEIDKNSKEQDNQFKVTYDMIGGLSSQLKAIREIIELPLKQPELFKSYGIPAPRGVLLYGPPGTGKTMIARAVANEVGAYVSVINGPEIISKFYGETEAKLRQIFAEATLRHPSIIFIDELDALCPKREGAQNEVEKRVVASLLTLMDGIGSEVSEGQVLVLGATNRPHALDAALRRPGRFDKEIEIGVPNAQDRLDILQKLLRRVPHLLTEAELLQLANSAHGYVGADLKVLCNEAGLCALRRILKKQPNLPDVKVAGLVKITLKDFLQAMNDIRPSAMREIAIDVPNVSWSDIGGLESIKLKLEQAVEWPLKHPESFIRMGIQPPKGVLLYGPPGCSKTMIAKALANESGLNFLAIKGPELMNKYVGESERAVRETFRKARAVAPSIIFFDELDALAVERGSSLGAGNVADRVLAQLLTEMDGIEQLKDVTILAATNRPDRIDKALMRPGRIDRIIYVPLPDAATRREIFKLQFHSMPVSNEVDLDELILQTDAYSGAEIVAVCREAALLALEEDIQANLIMKRHFTQALSTVTPRIPESLRRFYEDYQEKSGLHTL [SPATA5]”, the “solubility change mitosis (log2)” value with HeLa Kyoto [1] was determined as 0.184. For the same substance, the “solubility in G1/S (log2)” value in the data set on HeLa Kyoto [2] was -0.296. Moreover, the melting temperature in the data set on HeLa Kyoto [3] (cell cycle stage: G1/S) was 53 °C; with HeLa Kyoto [3] (cell cycle stage: mitosis), 51.7 °C. Besides, the thermal stability score in the data set with HeLa Kyoto [4] (setting [5]) was 1.78; in the data set on HeLa Kyoto [4] (cell cycle stage: mitosis), -0.413.
Turning to “MPLELELCPGRWVGGQHPCFIIAEIGQNHQGDLDVAKRMIRMAKECGADCAKFQKSELEFKFNRKALERPYTSKHSWGKTYGEHKRHLEFSHDQYRELQRYAEEVGIFFTASGMDEMAVEFLHELNVPFFKVGSGDTNNFPYLEKTAKKGRPMVISSGMQSMDTMKQVYQIVKPLNPNFCFLQCTSAYPLQPEDVNLRVISEYQKLFPDIPIGYSGHETGIAISVAAVALGAKVLERHITLDKTWKGSDHSASLEPGELAELVRSVRLVERALGSPTKQLLPCEMACNEKLGKSVVAKVKIPEGTILTMDMLTVKVGEPKGYPPEDIFNLVGKKVLVTVEEDDTIMEELVDNHGKKIKS [NANS]”, the “solubility change mitosis (log2)” value with HeLa Kyoto [1] is -0.108. Besides, the “solubility in G1/S (log2)” value in the data set with HeLa Kyoto [2] was 0.172. The melting temperature in the data set with HeLa Kyoto [3] (cell cycle stage: G1/S) was determined as 53 °C; in the data set on HeLa Kyoto [3] (cell cycle stage: mitosis), 52.3 °C. The thermal stability score with HeLa Kyoto [4] (setting [5]) is -1.59; in the data set with HeLa Kyoto [4] (cell cycle stage: mitosis) it was -2.55.
For the substance EPRS, the “solubility change mitosis (log2)” value with HeLa Kyoto [1] is -0.127. Also, the “solubility in G1/S (log2)” value in the data set on HeLa Kyoto [2] is -0.115. For the same substance, the melting temperature in the data set with HeLa Kyoto [3] (cell cycle stage: G1/S) is 48.6 °C; with HeLa Kyoto [3] (cell cycle stage: mitosis), 49 °C. Besides, the values for the thermal stability score in the data set on HeLa Kyoto [4] (setting [5]) and in the data set on HeLa Kyoto [4] (cell cycle stage: mitosis) were -0.525 and 2.58, respectively.
For the substance “MASERLPNRPACLLVASGAAEGVSAQSFLHCFTMASTAFNLQVATPGGKAMEFVDVTESNARWVQDFRLKAYASPAKLESIDGARYHALLIPSCPGALTDLASSGSLARILQHFHSESKPICAVGHGVAALCCATNEDRSWVFDSYSLTGPSVCELVRAPGFARLPLVVEDFVKDSGACFSASEPDAVHVVLDRHLVTGQNASSTVPAVQNLLFLCGSRK [PDDC1]”, the “solubility change mitosis (log2)” value in the data set with HeLa Kyoto [1] was -0.0189. Further, the “solubility in G1/S (log2)” value in the data set with HeLa Kyoto [2] amounted to 0.169. The results for the melting temperature in the data set with HeLa Kyoto [3] (cell cycle stage: G1/S) and with HeLa Kyoto [3] (cell cycle stage: mitosis) were 55 °C and 55.4 °C, respectively. The thermal stability score was -1.01 with HeLa Kyoto [4] (setting [5]) and -0.729 with HeLa Kyoto [4] (cell cycle stage: mitosis).
For the substance “MGGAVVDEGPTGVKAPDGGWGWAVLFGCFVITGFSYAFPKAVSVFFKELIQEFGIGYSDTAWISSILLAMLYGTGPLCSVCVNRFGCRPVMLVGGLFASLGMVAASFCRSIIQVYLTTGVITGLGLALNFQPSLIMLNRYFSKRRPMANGLAAAGSPVFLCALSPLGQLLQDRYGWRGGFLILGGLLLNCCVCAALMRPLVVTAQPGSGPPRPSRRLLDLSVFRDRGFVLYAVAASVMVLGLFVPPVFVVSYAKDLGVPDTKAAFLLTILGFIDIFARPAAGFVAGLGKVRPYSVYLFSFSMFFNGLADLAGSTAGDYGGLVVFCIFFGISYGMVGALQFEVLMAIVGTHKFSSAIGLVLLMEAVAVLVGPPSGGKLLDATHVYMYVFILAGAEVLTSSLILLLGNFFCIRKKPKEPQPEVAAAEEEKLHKPPADSGVDLREVEHFLKAEPEKNGEVVHTPETSV [SLC16A3]”, the “solubility change mitosis (log2)” value in the data set on HeLa Kyoto [1] was -0.161. The “solubility in G1/S (log2)” value with HeLa Kyoto [2] was found to be 0.106. Further, the melting temperature came to 60.1 °C with HeLa Kyoto [3] (cell cycle stage: G1/S) and 61.9 °C with HeLa Kyoto [3] (cell cycle stage: mitosis). The thermal stability score in the data set with HeLa Kyoto [4] (setting [5]) is -4.29; with HeLa Kyoto [4] (cell cycle stage: mitosis) it was -4.22.
As to “MSSNECFKCGRSGHWARECPTGGGRGRGMRSRGRGGFTSDRGFQFVSSSLPDICYRCGESGHLAKDCDLQEDACYNCGRGGHIAKDCKEPKREREQCCYNCGKPGHLARDCDHADEQKCYSCGEFGHIQKDCTKVKCYRCGETGHVAINCSKTSEVNCYRCGESGHLARECTIEATA [CNBP]”, in the data set on HeLa Kyoto [1], the “solubility change mitosis (log2)” value is -0.0883. Further, the “solubility in G1/S (log2)” value in the data set on HeLa Kyoto [2] is -0.223. Moreover, the melting temperature in the data set on HeLa Kyoto [3] (cell cycle stage: G1/S) amounted to 57.6 °C; in the data set on HeLa Kyoto [3] (cell cycle stage: mitosis), 58.8 °C. Also, the thermal stability score was -1.16 with HeLa Kyoto [4] (setting [5]) and -2.48 in the data set with HeLa Kyoto [4] (cell cycle stage: mitosis).
Turning to CLPX, in the data set with HeLa Kyoto [1], the “solubility change mitosis (log2)” value is -0.0641. The “solubility in G1/S (log2)” value with HeLa Kyoto [2] turned out to be 0.103. In addition, the values for the melting temperature in the data set with HeLa Kyoto [3] (cell cycle stage: G1/S) and with HeLa Kyoto [3] (cell cycle stage: mitosis) were 50.6 °C and 50.2 °C, respectively. Besides, the thermal stability score is 2.55 with HeLa Kyoto [4] (setting [5]) and 0.77 in the data set on HeLa Kyoto [4] (cell cycle stage: mitosis).
